The record followed here is article doi:10.1101/2020.08.12.247809 (bioRxiv, 2020).

The series “SEC” concerns the molecule itself. Put plainly: SEC. (In general: SEC sorts molecules by how far they enter the pores of the column.)
The target in another series is GST-HDAC1 (mouse, UniProt O09106 1-482). Put plainly: pull-down.
Sequence of GST-HDAC1 (O09106 whole entry): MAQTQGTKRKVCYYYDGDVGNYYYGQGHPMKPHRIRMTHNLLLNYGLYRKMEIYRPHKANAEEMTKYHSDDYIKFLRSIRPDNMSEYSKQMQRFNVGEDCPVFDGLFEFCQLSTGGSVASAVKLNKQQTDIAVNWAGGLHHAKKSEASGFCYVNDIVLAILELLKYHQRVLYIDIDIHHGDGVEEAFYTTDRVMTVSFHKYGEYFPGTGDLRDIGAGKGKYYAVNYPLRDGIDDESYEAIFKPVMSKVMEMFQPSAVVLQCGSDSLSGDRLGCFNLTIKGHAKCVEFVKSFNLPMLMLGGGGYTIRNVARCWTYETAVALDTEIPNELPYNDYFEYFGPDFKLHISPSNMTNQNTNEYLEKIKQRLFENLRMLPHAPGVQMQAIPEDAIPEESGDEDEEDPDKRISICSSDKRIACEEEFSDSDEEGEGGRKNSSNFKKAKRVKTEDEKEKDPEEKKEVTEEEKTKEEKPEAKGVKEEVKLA

B1: His6-KIAA1841(BTB) (domain or fragment, mouse, UniProt Q68FF0-1 144-261, looked up)
chain: GPNMVIHVCDEAKSLKEDFICPRDLLISEMKYFAEYLSMDAQRWEEVDISVHCDVHIFNWLIKYVKRNTKESKDCEIPALEPGNVISILISSEFLKMDSLVEQCIQYCHKNMNAIVAA
For the molecule B1, the “stoichiometry N” value in “SEC” worked out at 2. In addition, the binding result in the series with GST-HDAC1 is recorded as “binds”.

As usually defined, the stoichiometry N is the number of molecules, sites or subunits per partner or assembly.
